Data taken from the supplement of paper PMC10567573.

B1: DULLARD (parent)
chain: LVVFTASMEIYGSAVADKLDNSRS
B2: ALDH8A1 (parent)
chain: RVAKKLQSGLVWTNCWLIRELNLP
B3: TMEM120A (parent)
chain: YQSFVQFLQYYYQSGCLYRLRALG

Variants of: B1
Experiment: protein stability index of a GFP-peptide fusion (GPS, HEK-293T) (PSI 1-6); higher = more stable
Settings: c terminus: a fixed tail appended
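Further: lentivirally expressed fusions sorted by FACS into six bins by GFP to DsRed ratio, PSI derived from sequencing read proportions per bin multiplied by bin number.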

Protein stability index: each site, then its substitutions
L19: W 2.27 | K 1.66 | M 2.41 | E 2.17 | S 2.02 | P 2.23 | Q 2.45 | N 1.23 | R 1.87 | H 1.54 | I 1.62 | F 2.41 | Y 3.37 | D 1.73
I10: E 1.5 | L 1.34 | T 1.87 | F 2.94 | S 1.05 | H 1.44 | N 1.98 | M 1.28 | Y 1.92 | P 2.16 | V 2.24 | K 2.05 | Q 1.62
R23: D 1.75 | T 2.68 | K 1.71 | F 2.67 | S 2.05 | G 1.66 | Q 1.86 | V 2.42 | E 2.94 | C 2.03 | P 2.61 | H 2.77
S24: Q 2.15 | R 1.88 | A 2.29 | I 1.3 | E 2.29 | H 2.46 | L 2.2 | C 2.69 | T 2.71
V15: D 1.11 | Y 1.87 | G 2.14 | S 2.48 | H 1.82 | I 3.03 | T 1.66 | N 1.87 | K 2.26 | A 2 | E 2.32 | L 1.48 | C 1.95 | R 3.02
D17: L 3.58 | R 2.48 | V 1.97 | K 2.26 | H 3 | Y 2.6
S22: T 1.89 | P 2.62 | I 2.37 | K 2.58 | D 2.71 | E 4.27 | A 2.39 | M 2.31 | G 2.5 | Y 2.24 | R 3.98
S13: P 2.48 | T 2.42 | A 2.72 | R 2.84 | E 1.36 | C 2.05 | D 2.37 | I 2.46 | Q 1.29 | G 1.68 | Y 2.58
A16: P 3.45 | K 2.89 | H 3.11 | N 1.46 | F 4.14 | E 2.34 | Q 2.02 | I 2.93 | R 3.75 | D 3.11
Y11: H 1.58 | P 2.01 | A 3.03 | N 3.21 | K 1.51 | E 2.44 | R 1.88 | G 1.97 | S 2.13 | I 2.51 | D 1.38 | Q 2.07 | C 2.48 | M 1.56
A14: V 1.69 | C 2.02 | D 1.19 | N 2.84 | R 4.28 | E 1.04 | S 2.32 | T 3.78 | P 1.73 | Q 1.99
D20: S 3.14 | C 1.69 | T 2.02 | H 1.99 | N 1.6 | A 3.32 | P 2.48 | R 1.2 | E 1.97 | Y 2.51 | V 2.63 | K 1.88 | Q 3.44 | L 2.95
N21: T 2.67 | G 1.8 | S 4.01 | V 1.5 | A 2.08 | D 2.47 | K 3.06 | P 3 | R 2.68
G12: E 1.45 | V 3.44 | F 2.79 | T 2.86 | Q 1.85 | W 2.26 | P 2.37 | L 2.98
K18: G 1.99 | Y 1.55 | L 2.77 | D 2.94 | M 2.11 | N 2.74 | H 1.88 | V 2.79 | Q 2.49 | I 4.09

Variants of: B2
Experiment: as above
Settings: c terminus: a fixed tail appended

Protein stability index of substitutions, site by site:
K5: H 3.18 | V 4.01 | L 3.02 | M 3.19 | C 3.67 | T 2.88 | Y 3.1 | Q 1.34 | I 2.13
L6: M 3.2 | P 1.95 | K 2.56 | E 2.26 | T 2.31 | Q 2.86 | C 3.03 | A 2.04
G9: M 3.32 | T 3.22 | E 1.72 | W 2.58
L23: M 3.59 | E 2.88 | Q 3.48
R19: F 1.5 | S 2.44 | P 1.53 | L 2.18 | N 3.94
T13: K 2.59 | H 1.57 | E 1.95
A3: I 3.48 | R 2.03 | P 3.51 | W 2.5 | M 3.44 | E 3.61 | Y 1.16
S8: V 3.65 | A 3.67 | E 2.9 | I 1.71 | H 1.63 | T 1.94
W12: T 1.61 | Q 1.18 | V 1.67 | P 3.58 | K 2.27 | H 2.37 | E 2.75 | S 2.38
E20: M 1.33 | Y 3.02 | T 3.57 | P 2.22
V2: E 1.9 | T 2.33 | I 3.68 | S 3.15 | N 2.49 | H 4.07 | W 2.54 | K 1.36 | P 2.08 | D 1.92
L10: D 1.51 | T 2.97 | R 2.47
I18: Y 1.89 | S 3.62 | M 2.47 | N 2.46 | H 1.89 | P 1.3 | T 2.57 | E 2.2 | K 4.38 | D 1.73
Q7: K 2.17 | W 2.85 | P 2.97 | Y 2.48 | M 1.85 | N 2.29 | L 4.65
P24: W 3.34 | A 2.76 | Y 3.16 | T 2.19 | S 2.25
W16: A 2.71 | E 1.43 | K 2.08 | T 2.09 | L 1.85 | F 2.47 | Q 1.03 | H 1.92 | N 2.1 | M 3.3 | G 1.32 | D 1.63 | P 1.22
N14: M 2.04 | L 2.19 | K 2.73 | D 2.19 | F 2.33 | P 2.06 | Y 1.59 | V 1.22 | I 1.2
V11: E 2.29 | P 2.11 | L 2.91 | W 4.66 | D 2.32
R1: V 2.44 | H 2.09 | L 5 | T 3.94 | F 3.15 | N 3.5 | D 2.04 | K 3.98 | C 1.74 | P 2.46
N22: K 4.74 | Y 3.15 | G 2.7 | T 2.17 | D 5.55 | P 3.03 | I 3.01
K4: H 2.45 | C 1.05 | L 1.98 | M 2.82 | N 4.07 | W 3.14 | R 2.29 | F 2.22
L21: D 3.05 | H 2.79 | G 5.81 | W 2.9
C15: H 3.92 | R 3.14 | E 1.8 | L 2.64 | P 2.17 | A 2.39 | I 2.44 | V 2.65
L17: I 1.08 | P 1.68 | F 2.6 | Q 1.32 | D 3.58 | N 1.33 | R 3.13 | E 2.77 | K 1.34

Variants of: B3
Experiment: as above
Settings: c terminus: a fixed tail appended

Protein stability index of substitutions, site by site:
Y1: I 2.24 | F 3.06 | K 2.19 | E 1.49
